{"source": "paper PMC6713507", "molecular_target": "catalytic α subunit of the cAMP-dependent protein kinase A, Cushing's syndrome mutant L205R (PKA-C^L205R) (human)", "assay": "ITC"}
{"substance": "VPS36-derived peptide (vacuolar protein-sorting–associated protein 36, residues 115 to 130)", "values": [{"measurement": "Kd", "value": 3.5, "unit": "µM"}]}
